Consider 6 molecules from US20200247894A1 (Regeneron, published 2020).

Experiment [1] has as its target T1, mouse IL-2Rγ endogenously expressed on MC/9 cells (mouse, UniProt P34902 23-369).
T1 construct: whole, on cells
T1 sequence (looked up): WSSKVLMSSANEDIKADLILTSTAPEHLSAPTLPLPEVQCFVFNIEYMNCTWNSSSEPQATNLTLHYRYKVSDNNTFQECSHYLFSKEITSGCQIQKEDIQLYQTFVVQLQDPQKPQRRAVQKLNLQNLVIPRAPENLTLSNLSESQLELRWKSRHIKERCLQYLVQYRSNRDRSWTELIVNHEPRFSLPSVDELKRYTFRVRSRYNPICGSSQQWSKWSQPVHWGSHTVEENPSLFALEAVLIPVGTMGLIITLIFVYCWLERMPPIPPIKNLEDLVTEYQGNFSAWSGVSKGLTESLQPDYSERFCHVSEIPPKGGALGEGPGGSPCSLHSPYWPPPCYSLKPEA
Kind of experiment: flow cytometry, 10 ug/ml antibody, MC/9 cells (endogenous mouse IL-2Rg). Here is the method:
(§1) For flow cytometry analyses, the cells were pre-incubated with mouse IgG at 100 μg/ml for 15 minutes at room temperature (RT) to block the binding of the antibodies to Fc receptors. […] Cells were washed, fixed using BD CytoFix™ (BD biosciences, #554655) and analyzed on an IQue® (Intellicyt®) Flow Cytometer or Accuri Flow cytometer (BD). […] The results were analyzed using ForeCyt® (IntelliCyt®) software to determine the geometric means of fluorescence (MFI) for viable cells. Binding ratios were calculated by normalizing the MFI of the test sample by the MFI of the unstained sample.
A general note: A flow cytometer gives signals particle by particle.

The target of experiment [2] is T2, human IL-2Rγ endogenously expressed on NK-92 and Jurkat cells (human, UniProt P31785 23-369).
T2 construct: whole, on cells; on cells it stands with the other receptor subunits of the cell line; also called IL-2Rg; CD132
T2 sequence (looked up): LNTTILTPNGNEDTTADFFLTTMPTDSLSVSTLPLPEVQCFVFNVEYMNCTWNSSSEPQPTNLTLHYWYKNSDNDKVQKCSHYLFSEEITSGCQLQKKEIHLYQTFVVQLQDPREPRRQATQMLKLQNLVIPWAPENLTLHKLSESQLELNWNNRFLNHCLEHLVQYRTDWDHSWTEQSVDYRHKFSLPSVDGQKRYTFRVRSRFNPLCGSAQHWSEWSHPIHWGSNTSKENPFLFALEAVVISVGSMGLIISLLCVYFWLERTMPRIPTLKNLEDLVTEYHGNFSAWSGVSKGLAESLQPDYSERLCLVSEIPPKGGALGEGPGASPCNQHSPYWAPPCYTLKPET
Kind of experiment: flow cytometry, 10 ug/ml antibody, NK-92 cells (endogenous human IL-2Rg). As to the method:
as §1

For experiment [3], the target named is T2, human IL-2Rγ endogenously expressed on …. Kind of experiment: flow cytometry, 10 ug/ml antibody, Jurkat cells (endogenous human IL-2Rg). As to the method:
as §1

Substitutions are numbered along the chain they refer to.

B1: H4H12889P (antibody, human IgG4 S228P, kappa, V domains shown)
VH: EVQLVESGGGLVQPGGSLRLSCAASGFIFSSYEMHWVRQAPGKGLEWISYISSSGTTIYYADSVKGRFTISRDNAKNSLYLHMNSLRAEDTAVYYCTRARITGTFDVFDIWGQGTMVTVSS
VL: DIQMTQSPSSLSASVGDRVTITCRASQSISSYLNWYQQKPGKAPKLLIFAASNLQSGVPSRFSGSRSGTDFTLTISSLQPEDFATYYCQQNYNIPYTFGQGTKLEIKR
notes: fully human anti-IL2Rg antibody, human IgG4; also called REGN7257
Take B1: the figures for the “Binding Ratio (Sample over unstained MFIs)” value (shortened to “Binding Ratio”) in experiment [1], in experiment [2] and in experiment [3] were 1, 94 and 19, respectively. Moreover, the “Raw MFI” value in experiment [1] came to 91 MFI; in experiment [2] it was 14100 MFI; in experiment [3], 1660 MFI.

B2: H4H12884P (antibody, human IgG4 S228P, kappa, V domains shown)
VH: QVQLQESGPGLVKPSQTLSLTCTVSGGSISSGGYYWSWIRQHPGKGLEWIGFIYYSGKTYYNPSLKSRLTISVDTSKSQFSLKLRSVTAADTAVYYCARLGYTNSAGWFDPWGQGTLVTVSS
VL: DIQMTQSPSSLSASVGDRVTITCRASQSISSYLNWYQQKPGKAPNLLIYAASSLQSGVPSRFSGSGSGTDFTLTISSLQPEDLATYYCQQSYTTPFTFGPGTKVDIKR
notes: fully human anti-IL2Rg antibody, human IgG4
With B2, the “Binding Ratio” value came to 1 in experiment [1], 90 in experiment [2] and 16 in experiment [3]. Besides, the “Raw MFI” value in experiment [1] amounted to 172 MFI; in experiment [2], 13500 MFI; in experiment [3] it was 1420 MFI.

B3: H4H12890P (antibody, human IgG4 S228P, kappa, V domains shown)
VH: EVQLVESGGGLVQPGGSLRLSCAASGFTFNNYAMHWVRQAPGKGLEYVSSISSSGGSTYYEDSVKGRFTISRDNSKNTLYLQMGSLRAEDMAVYYCARSFYGSGTYYDTFDMWGQGTMVTVSS
VL: B2 VL with V15I, S31R, N45K, G64A, L83F, T93S, P100Q, V104L, D105E
notes: as for B2
As to B3, the “Binding Ratio” value turned out to be 1 in experiment [1], 30 in experiment [2] and 6 in experiment [3]. The results for the “Raw MFI” value in experiment [1], in experiment [2] and in experiment [3] were 170 MFI, 4570 MFI and 500 MFI, respectively.

B4: H4H12899P (antibody, human IgG4 S228P, kappa, V domains shown)
VH: QVQLVESGGDLVKPGGSLRLSCATSGFTFSDFYMTWIRQAPGKGLEWISYISNSGSIVKYADSVKGRFTISRDNAKNSLYLQMNSLRAEDTAIYYCARFYGDRWGQGTLVTVSS
VL: DIQLTQSPSFLSASVGDRVTITCWASQGISTFLAWYQQKPGKAPKLLIYAASTLQSGVPSRFSGSGSGTDFTLTISSLQPEDFATYHCQQLNNYPWTFGQGTKVEIKR
notes: as for B2
B4: the “Binding Ratio” value in experiment [1] was 1; in experiment [2], 18; in experiment [3], 1. Moreover, the “Raw MFI” value in experiment [1] stood at 167 MFI; in experiment [2], 2670 MFI; in experiment [3], 114 MFI.

B5: H4H12900P (antibody, human IgG4 S228P, kappa, V domains shown)
VH: QVQLVESGGGLVKPGGSLRLSCEASGFTFNDFYMTWIRQAPGKGLEWIAYISKSGDKMRYADSVKGRFSTSRDNAKNSLSLQMNSLRAEDTAVYYCARFYGDIWGQGTLVTVSS
VL: B4 VL with G28D, T31S, A34V, K45N, T53A, D70E, T85S, H87Y, Q89E
notes: as for B2
As for B5, the “Binding Ratio” value amounted to 1 in experiment [1], 28 in experiment [2] and 1 in experiment [3]. Also, the “Raw MFI” value in experiment [1] came out at 128 MFI; in experiment [2] it was 4200 MFI; in experiment [3], 110 MFI.

B6: H4H12886P (antibody, human IgG4 S228P, kappa, V domains shown)
VH: EVQLVESGGGLVKPGGSLRLSCAASGFTFSTAWMSWVRQSPGRGLEWVGRMKSKTDGGTTFYAAPVKGRFTISRDDSKNTLYLQMNSLKTEDTAVYYCTTGLVPAFYKYYGVDVWGQGTTVTVSS
VL: DIQMTQSPSSLSASVGDRITITCQASQDITNYLNWYQQKPGKAPNLLIYDASNLVTGVPSRFSGSGSGTDFTFTILSLQPEDIATYYCQQYDSLLTFGPGTKVDIKR
notes: as for B2
With B6, the “Binding Ratio” value in experiment [1] was determined as 1; in experiment [2] it was 32; in experiment [3], 6. Besides, the “Raw MFI” value worked out at 185 MFI in experiment [1], 4720 MFI in experiment [2] and 488 MFI in experiment [3].
